These results are taken from patent US7262005.

This assay concerns the target Fas receptor (UniProt P25445). The assay can be described thus: cell-based or functional assay.

Fas receptor, sequence (P25445 26-335 limits assumed): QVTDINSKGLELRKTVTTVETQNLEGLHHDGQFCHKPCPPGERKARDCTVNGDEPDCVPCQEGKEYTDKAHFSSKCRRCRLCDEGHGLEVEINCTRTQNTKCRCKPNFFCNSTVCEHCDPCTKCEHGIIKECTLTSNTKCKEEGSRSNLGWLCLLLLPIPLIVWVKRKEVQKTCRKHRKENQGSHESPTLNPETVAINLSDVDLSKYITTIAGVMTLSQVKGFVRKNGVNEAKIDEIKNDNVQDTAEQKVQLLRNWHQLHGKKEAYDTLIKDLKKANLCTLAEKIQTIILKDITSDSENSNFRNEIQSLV

As to CH-11 anti-Fas IgM (antibody), the 460/530 emission ratio, + αFas/+ chx, Jurkat cells expressing 2XUb-DEVD-Bla, 50 ng/ml anti-Fas IgM for 6 hours (460/530 emission ratio) is 0.67 and the EC50 of caspase activation in Jurkat cells expressing 2XUb-DEVD-Bla (β-lactamase activity, CCF2 460/530 nm ratio after cycloheximide chase) was determined as 0.011 µg/mL.
